{
  "source": "patent US7901879B2",
  "about": "“Lactoferrin in the treatment of malignant neoplasms and other hyperproliferative diseases” (Agennix Incorporated, priority 2002, dated 2011)",
  "key": {"GM-CSF": {"system": "GM-CSF", "experiment": "GM-CSF production in small intestine after oral rhLF (ELISA)", "type": "in vivo, mice", "details": "oral 300 mg/kg/day three days", "method": "Recombinant human lactoferrin or placebo were orally administered to mice, and the production of GM-CSF in the small intestine was measured.\nMice (5 animals per group) were treated for three days daily with 300 mg/kg/day of rhLF. For a control, mice were only administered the pharmaceutical carrier. Twenty-four hours following administration of the LF or placebo for 3 days, animals were and the small intestinal tissue was removed for further analysis. Small intestinal epithelium was homogenized using a lysis buffer consisting of PBS, 1% Nonidet P-40, 0.5% sodium deoxycholate, and 0.1% sodium dodecyl sulphate containing 10 μg/ml PhenylMetheylsulfonyl fluoride. Homogenate was centrifuged at 15,000 rpm for 10 minutes and the supernatant stored at −80 C. till it was tested for GM-CSF levels using an ELISA kit."}, "[1]": {"system": "O12 human oropharyngeal squamous cell carcinoma tumor cells", "experiment": "Intratumoral rhLF in O12 tumors in nude mice (Example 17)", "type": "in vivo, athymic nude mice", "method": "O12 human oropharyngeal squamous cell carcinoma tumor cells were injected to the right flank of athymic nude mice. Recombinant human lactoferrin and vehicle controls were dosed via intratumoral injection. Each animal was administered different concentrations of rhLF in 50 μL doses consisting of four separate injections of approximately 12.5 μL of the dose, at different directions and angles (approximately S/N/E/W) to ensure that the dose was distributed evenly throughout the tumor (fanning).\nIn this study, rhLF was administered directly into the tumor. Each animal was tracked daily for tumor growth by external caliper measurements of the protruding tumor."}, "IL-18": {"system": "IL-18", "experiment": "IL-18 levels in small intestine and serum after oral rhLF or bLF (cytokine ELISA)", "type": "in vivo, mice", "details": "for IL-18 Intestinal Extract / IL-18 Serum: 24 h after last dose", "method": "Recombinant human lactoferrin and bovine lactoferrin were orally administered to mice, and the production of IL-18 in the small intestine was measured.\nMice were treated for three days daily with 65 mg/kg/day of rhLF, 300 mg/kg/day of rhLF or 300 mg/kg/day of bLF. For a control, mice were only administered the pharmaceutical carrier. Twenty-four hours following administration of the LF or control for 3 days, animals were weighed and blood and serum were collected. Serum was used for cytokine ELISA assays.\nAlso, at these time points, animals were sacrificed and the small intestinal tissue was removed for further analysis. Small intestinal epithelium was homogenized using a lysis buffer consisting of PBS, 1% Nonidet P-40, 0.5% sodium deoxycholate, and 0.1% sodium dodecyl sulphate containing 10 μg/ml PhenylMetheylsulfonyl fluoride. Homogenate was centrifuged at 15,000 rpm for 10 minutes and the supernatant stored at −80 C. till it was tested for IL-18 levels."}, "[2]": {"system": "Human squamous cell carcinoma (O12)", "experiment": "Tumor growth inhibition by rhLF in O12 tumor model in mice (Example 1)", "type": "in vivo, athymic nude mice", "method": "Human squamous cell carcinoma (O12) was used. The cells were injected into the right flank of athymic nude mice. rhLF was administered either intratumorally (49 animals, 7 doses ranging from 0.05 μg to 125 μg per dose), intravenously (7 animals, 125 ug/dose) or orally (7 animals 20 mg/dose). Control animals were treated with only the vehicle; no rhLF was administered to the control animals. rhLF was administered twice a day for either five days (intravenous group) or eight days (all other groups) starting 11 days after inoculation with tumor cells to allow formation of established tumors.\nThe efficacy of treatment was evaluated by measuring the solid tumor size during and at the end of the experiment; the body weights were also determined at the time of tumor measurements."}, "[3]": {"system": "murine squamous carcinoma cell line (SCCVII)", "experiment": "SCCVII tumor growth, oral rhLF and/or radiotherapy (Example 9)", "type": "in vivo, immunocompetent C3H mice", "method": "A murine squamous carcinoma cell line (SCCVII) was injected into the floor of mouth through the neck skin of immunocompetent C3H mice (Day 0). […] Tumors were measured in three dimensions with calipers.\nTumor-bearing mice were randomized into six groups receiving rhLF (200 mg/Kg) and/or radiotherapy as described below. RhLF (4 mg; 200 mg/kg) was administered by oral gavage once daily for 8 days on days 5 through 12. Radiotherapy was administered as single dose of 2 Gray given at the beginning (day 5) or at during (day 8) rhLF-therapy. Animals were sacrificed on day 14 post-treatment and the residual tumor masses were measured and processed for later additional analyses."}, "circulating lymphocytes": {"system": "circulating lymphocytes", "experiment": "Circulating lymphocytes after intratumoral rhLF in tumor-bearing mice (Example 18)", "type": "in vivo, C3H/HeJ mice", "method": "Normal C3H/HeJ mice were implanted with one of two mouse tumors following the methodology described in Example 17. Tumors used were SCCVII and RIF mouse tumor cell lines. Following establishment of the tumors in the mice, tumors were injected intratumorally daily for 4 days with 250 or 500 μg rhLF per dose or with vehicle control. Twenty four hours following the last intratumoral injection, animals were sacrificed and the blood examined for lymphocyte populations. The number of circulating lymphocytes were increased by 34% to 56% relative to the placebo treated control animals (Table 14)."}, "[4]": {"system": "murine squamous carcinoma cell line (SCCVII)", "experiment": "SCCVII floor-of-mouth tumor growth, oral rhLF and/or cisplatin (Example 6)", "type": "in vivo, immunocompetent C3H mice", "details": "rhLF alone 200 mg/kg oral once daily days 5-12", "method": "A murine squamous carcinoma cell line (SCCVII) was injected into the floor of the mouth through the neck skin of immunocompetent C3H mice (Day 0). […] Tumors were measured in three dimensions with calipers.\nTumor-bearing mice were randomized into a control group and seven groups receiving rhLF and/or cisplatin. RhLF (4 mg; 200 mg/Kg) was administered once daily by oral gavage for 8 days on days 5 through 12. Cisplatin was administered as a single dose of 5 mg/Kg given intraperitoneally either at the start of rhLF (day 5), in the middle (day 8) or at the end (day 12) of rhLF therapy. Animals were sacrificed on day 12 post-implantation and the residual tumor masses were measured and processed for later additional analyses."}, "[5]": {"details": "oral 65 mg/kg rhLF versus 300 mg/kg bLF"}, "[6]": {"details": "oral 65 mg/kg/day for three days"}, "[7]": {"details": "oral 300 mg/kg rhLF versus 300 mg/kg bLF"}, "[8]": {"details": "oral 300 mg/kg/day for three days"}, "[9]": {"details": "oral, rhLF at both doses, bLF 300 mg/kg/day"}, "[10]": {"details": "intratumoral 250 or 500 μg per dose daily for 4 days, blood 24 h after last injection"}},
  "data": [
    {"molecule": "Recombinant human lactoferrin (protein, UniProt P02788 20-710, looked up, human lactoferrin produced recombinantly) Lactotransferrin: GRRRSVQWCAVSQPEATKCFQWQRNMRKVRGPPVSCIKRDSPIQCIQAIAENRADAVTLDGGFIYEAGLAPYKLRPVAAEVYGTERQPRTHYYAVAVVKKGGSFQLNELQGLKSCHTGLRRTAGWNVPIGTLRPFLNWTGPPEPIEAAVARFFSASCVPGADKGQFPNLCRLCAGTGENKCAFSSQEPYFSYSGAFKCLRDGAGDVAFIRESTVFEDLSDEAERDEYELLCPDNTRKPVDKFKDCHLARVPSHAVVARSVNGKEDAIWNLLRQAQEKFGKDKSPKFQLFGSPSGQKDLLFKDSAIGFSRVPPRIDSGLYLGSGYFTAIQNLRKSEEEVAARRARVVWCAVGEQELRKCNQWSGLSEGSVTCSSASTTEDCIALVLKGEADAMSLDGGYVYTAGKCGLVPVLAENYKSQQSSDPDPNCVDRPVEGYLAVAVVRRSDTSLTWNSVKGKKSCHTAVDRTAGWNIPMGLLFNQTGSCKFDEYFSQSCAPGSDPRSNLCALCIGDEQGENKCVPNSNERYYGYTGAFRCLAENAGDVAFVKDVTVLQNTDGNNNEAWAKDLKLADFALLCLDGKRKPVTEARSCHLAMAPNHAVVSRMDKVERLKQVLLHQQAKFGRNGSDCPDKFCLFQSETKNLLFNDNTECLARLHGKTTYEKYLGPQYVAGITNLKKCSTSPLLEACEFLRK", "values": [
      {"measurement": "GM-CSF Mean (SEM)", "setting": "GM-CSF; 24 h after last dose", "result": "7.74 (0.19) pg"},
      {"measurement": "GM-CSF Increase over Placebo", "setting": "GM-CSF; p < 0.01", "result": "19.4% (p < 0.01)"},
      {"measurement": "reduction of rates of tumor growth versus pooled placebo", "setting": "[1]; Group A, single intratumoral dose, day 11 after administration, p<0.05", "result": 50, "unit": "%"},
      {"measurement": "reduction of rates of tumor growth versus pooled control group", "setting": "[1]; Group C, intratumoral twice daily for 8 days, p<0.01", "result": 56, "unit": "%"},
      {"measurement": "IL-18 Intestinal Extract % Increase Over Control", "setting": "IL-18; oral 65 mg/kg", "result": 725, "unit": "%"},
      {"measurement": "IL-18 Serum % Increase Over Control", "setting": "IL-18; oral 65 mg/kg", "result": 84, "unit": "%"},
      {"measurement": "IL-18 Intestinal Extract % Increase Over Blf", "setting": "IL-18; [5]", "result": 75, "unit": "%"},
      {"measurement": "IL-18 Serum % Increase Over Blf", "setting": "IL-18; [5]", "result": 94, "unit": "%"},
      {"measurement": "IL-18 Intestinal Extract", "setting": "IL-18; [6]", "result": "7,879 pg"},
      {"measurement": "IL-18 Serum", "setting": "IL-18; [6]", "result": 259, "unit": "pg"},
      {"measurement": "IL-18 Intestinal Extract % Increase Over Control", "setting": "IL-18; oral 300 mg/kg", "result": 775, "unit": "%"},
      {"measurement": "IL-18 Serum % Increase Over Control", "setting": "IL-18; oral 300 mg/kg", "result": 132, "unit": "%"},
      {"measurement": "IL-18 Intestinal Extract % Increase Over Blf", "setting": "IL-18; [7]", "result": 85, "unit": "%"},
      {"measurement": "IL-18 Serum % Increase Over Blf", "setting": "IL-18; [7]", "result": 145, "unit": "%"},
      {"measurement": "IL-18 Intestinal Extract", "setting": "IL-18; [8]", "result": "8,350 pg"},
      {"measurement": "IL-18 Serum", "setting": "IL-18; [8]", "result": 328, "unit": "pg"},
      {"measurement": "effect on amount of IL-18 in the intestinal extract", "setting": "IL-18; [9]", "result": "significantly enhanced"},
      {"measurement": "effect on amount of IL-18 in the serum", "setting": "IL-18; [9]", "result": "significantly enhanced"},
      {"measurement": "Inhibition Relative to Placebo", "setting": "[2]; intratumoral, twice a day for eight days, 0.05 μg to 125 μg per dose, Day 19", "result": 28, "unit": "%"},
      {"measurement": "Inhibition Relative to Placebo", "setting": "[2]; intratumoral, twice a day for eight days, 0.05 μg to 125 μg per dose, Day 28", "result": 46, "unit": "%"},
      {"measurement": "Inhibition Relative to Placebo", "setting": "[2]; intravenous 125 ug/dose twice a day for five days, Day 19", "result": 55, "unit": "%"},
      {"measurement": "Inhibition Relative to Placebo", "setting": "[2]; intravenous 125 ug/dose twice a day for five days, Day 28", "result": 65, "unit": "%"},
      {"measurement": "Inhibition Relative to Placebo", "setting": "[2]; oral 20 mg/dose twice a day for eight days, Day 19", "result": 76, "unit": "%"},
      {"measurement": "Inhibition Relative to Placebo", "setting": "[2]; oral 20 mg/dose twice a day for eight days, Day 28", "result": 80, "unit": "%"},
      {"measurement": "Inhibition Relative to Placebo", "setting": "[3]; both rhLF/Rad groups pooled (D/F)", "result": 67, "unit": "%"},
      {"measurement": "Inhibition Relative to Placebo", "setting": "[3]; rhLF 200 mg/kg oral days 5-12 plus radiation 2 Gray on day 5", "result": 68, "unit": "%"},
      {"measurement": "Inhibition Relative to Placebo", "setting": "[3]; rhLF 200 mg/kg oral days 5-12 plus radiation 2 Gray on day 8", "result": 66, "unit": "%"},
      {"measurement": "Inhibition Relative to Placebo", "setting": "[3]; rhLF alone 200 mg/kg oral once daily days 5-12", "result": 54, "unit": "%"},
      {"measurement": "increase in TGI over monotherapy with rhLF", "setting": "[3]; rhLF plus radiation, P<0.05", "result": 28, "unit": "%"},
      {"measurement": "increase in TGI over monotherapy with radiation", "setting": "[3]; rhLF plus radiation, P=0.1207", "result": 15, "unit": "%"},
      {"measurement": "Number of Cells CD3+", "setting": "circulating lymphocytes; [10]", "result": 3291},
      {"measurement": "Number of Cells CD4+", "setting": "circulating lymphocytes; [10]", "result": 2621},
      {"measurement": "Number of Cells CD8+", "setting": "circulating lymphocytes; [10]", "result": 1054},
      {"measurement": "Increase with rhLF, CD3+", "setting": "circulating lymphocytes; relative to placebo", "result": 56, "unit": "%"},
      {"measurement": "Increase with rhLF, CD4+", "setting": "circulating lymphocytes; relative to placebo", "result": 46, "unit": "%"},
      {"measurement": "Increase with rhLF, CD8+", "setting": "circulating lymphocytes; relative to placebo", "result": 34, "unit": "%"},
      {"measurement": "TGI (%) Relative to Placebo", "setting": "[4]", "result": 33, "unit": "%"}
    ]}
  ]
}
